Experimental findings from the Immune Epitope Database (IEDB) are described below.

Some targets named below: HLA-A*02:01; HLA-A*02:02; HLA-A*02:03; HLA-A*02:06; HLA-A*68:02.
Holding throughout (experiment): IEDB peptide-MHC binding, cellular MHC/competitive/fluorescence; ≥ and ≤ were set here for values at or beyond the usual limits of such assays
The mark [1] stands for this setting: source organism: Mammarenavirus guanaritoense.
Where [2] appears, read: source organism: Vaccinia virus WR.
[3] abbreviates: source organism: Mammarenavirus machupoense.
[4] abbreviates: source organism: Influenza A virus.

For orientation: IC50 means the concentration at which inhibition is half-maximal. Read a low IC50 as greater potency. For YVIGLLPQS, the IC50 in the test with HLA-A*02:01 (setting [1]) is no less than 70 µM; with HLA-A*02:02 (setting [1]), no less than 70 µM; with HLA-A*02:03 (setting [1]) it was no less than 70 µM; with HLA-A*02:06 (setting [1]), 48.1 µM; in the test with HLA-A*68:02 (setting [1]) it was no less than 70 µM.

As for PTEMVDVSMM, the IC50 in the test with HLA-A*02:01 (setting [2]) was 41.9 µM; in the test with HLA-A*02:02 (setting [2]), 11.5 µM; in the test with HLA-A*02:03 (setting [2]) it was no less than 70 µM; in the test with HLA-A*02:06 (setting [2]), 12.1 µM; with HLA-A*68:02 (setting [2]), no less than 70 µM.

With KAMHDKKIDI, the 50% inhibitory concentration (IC50) with HLA-A*02:01 (setting [2]) is 50.6 µM; in the test with HLA-A*02:02 (setting [2]) it was no less than 70 µM; with HLA-A*02:03 (setting [2]), 46.2 µM; in the test with HLA-A*02:06 (setting [2]) it was 26.4 µM; in the test with HLA-A*68:02 (setting [2]), no less than 70 µM.

AVSVYGAIT: the IC50 was determined as 7.23 µM with HLA-A*02:01 (setting [2]); 11.4 µM with HLA-A*02:02 (setting [2]); 9.62 µM with HLA-A*02:03 (setting [2]); 14.2 µM in the test with HLA-A*02:06 (setting [2]); 6.28 µM with HLA-A*68:02 (setting [2]).

Regarding HAKYMVTDKT, the half-inhibitory concentration (IC50) in the test with HLA-A*02:01 (setting [2]) was 51.8 µM; with HLA-A*02:02 (setting [2]) it was 9.03 µM; with HLA-A*02:03 (setting [2]) it was 35 µM; with HLA-A*02:06 (setting [2]) it was 64.9 µM; with HLA-A*68:02 (setting [2]) it was no less than 70 µM.

Turning to DVGCLLTDTI, the concentration for half-maximal inhibition (IC50) with HLA-A*02:01 (setting [2]) turned out to be 6.84 µM; with HLA-A*02:02 (setting [2]), 10.7 µM; with HLA-A*02:03 (setting [2]) it was 15.6 µM; with HLA-A*02:06 (setting [2]), 10 µM; in the test with HLA-A*68:02 (setting [2]) it was 27.4 µM.

Turning to SVDEEGCGPL, the half-maximal inhibitory concentration (IC50) in the test with HLA-A*02:01 (setting [2]) came out at 32.1 µM; with HLA-A*02:02 (setting [2]) it was 14.8 µM; in the test with HLA-A*02:03 (setting [2]), 38.7 µM; with HLA-A*02:06 (setting [2]) it was 12.7 µM; with HLA-A*68:02 (setting [2]) it was 35.3 µM.

LTNKKYRCMA: the 50% inhibitory concentration (IC50) with HLA-A*02:01 (setting [2]) is no less than 70 µM; with HLA-A*02:02 (setting [2]), 34.8 µM; with HLA-A*02:03 (setting [2]), 5.4 µM; with HLA-A*02:06 (setting [2]) it was no less than 70 µM; with HLA-A*68:02 (setting [2]), 16.6 µM.

Consider PLIISTDQDT, for which the IC50 with HLA-A*02:01 (setting [2]) is 52.5 µM; in the test with HLA-A*02:02 (setting [2]) it was 45 µM; in the test with HLA-A*02:03 (setting [2]) it was 35.6 µM; with HLA-A*02:06 (setting [2]), 47.4 µM; in the test with HLA-A*68:02 (setting [2]), no less than 70 µM.

As to NVDVGCLLT, the IC50 with HLA-A*02:01 (setting [2]) is 47.3 µM; in the test with HLA-A*02:02 (setting [2]) it was 9.85 µM; in the test with HLA-A*02:03 (setting [2]) it was 14 µM; with HLA-A*02:06 (setting [2]), 64.9 µM; in the test with HLA-A*68:02 (setting [2]), no less than 70 µM.

For the sequence YNFSLSAAV, the IC50 is 7.51 µM in the test with HLA-A*02:01 (setting [3]); 46.3 µM in the test with HLA-A*02:02 (setting [3]); no less than 70 µM with HLA-A*02:03 (setting [3]); no less than 70 µM with HLA-A*02:06 (setting [3]); 29.7 µM with HLA-A*68:02 (setting [3]).

PACVYGPA: the IC50 with HLA-A*02:01 (setting [4]) was no less than 70 µM; with HLA-A*02:02 (setting [4]) it was 14.2 µM; with HLA-A*02:03 (setting [4]), no less than 70 µM; with HLA-A*02:06 (setting [4]), no less than 70 µM; with HLA-A*68:02 (setting [4]), no less than 70 µM.

In the case of EAKTHFSTT, the IC50 was determined as 27.7 µM with HLA-A*02:01 (setting [2]); 36.6 µM with HLA-A*02:02 (setting [2]); 25.1 µM with HLA-A*02:03 (setting [2]); 55.2 µM with HLA-A*02:06 (setting [2]); 13.2 µM with HLA-A*68:02 (setting [2]).

NVRGSGMRILV: the concentration for half-maximal inhibition (IC50) with HLA-A*02:01 (setting [4]) is 20.8 µM; in the test with HLA-A*02:02 (setting [4]) it was no less than 70 µM; with HLA-A*02:03 (setting [4]), 46.1 µM; in the test with HLA-A*02:06 (setting [4]) it was 54.7 µM; with HLA-A*68:02 (setting [4]), 11.2 µM.

As for NMDKVSAQNI, the half-inhibitory concentration (IC50) with HLA-A*02:01 (setting [2]) was 16 µM; with HLA-A*02:02 (setting [2]), 8.02 µM; with HLA-A*02:03 (setting [2]), 16.8 µM; with HLA-A*02:06 (setting [2]), no less than 70 µM; with HLA-A*68:02 (setting [2]), 37.3 µM.

As for LIQYRQQLEL, the half-inhibitory concentration (IC50) with HLA-A*02:01 (setting [2]) is no less than 70 µM; with HLA-A*02:02 (setting [2]), 32.8 µM; in the test with HLA-A*02:03 (setting [2]), 19.5 µM; in the test with HLA-A*02:06 (setting [2]), 52.9 µM; with HLA-A*68:02 (setting [2]), no less than 70 µM.

Consider AAFEDLRV, for which the 50% inhibitory concentration (IC50) with HLA-A*02:01 (setting [4]) was 31.4 µM; with HLA-A*02:02 (setting [4]), 28.8 µM; with HLA-A*02:03 (setting [4]), 7.32 µM; with HLA-A*02:06 (setting [4]), 18.4 µM; with HLA-A*68:02 (setting [4]), no less than 70 µM.

Regarding ALSYSTGA, the IC50 is no less than 70 µM with HLA-A*02:01 (setting [4]); no less than 70 µM with HLA-A*02:02 (setting [4]); 25.8 µM with HLA-A*02:03 (setting [4]); no less than 70 µM with HLA-A*02:06 (setting [4]); no less than 70 µM with HLA-A*68:02 (setting [4]).

Take NILGGVLHT: the IC50 in the test with HLA-A*02:01 (setting [2]) was 41.7 µM; in the test with HLA-A*02:02 (setting [2]), no less than 70 µM; with HLA-A*02:03 (setting [2]) it was 20.6 µM; in the test with HLA-A*02:06 (setting [2]) it was 9.97 µM; with HLA-A*68:02 (setting [2]) it was no less than 70 µM.

With GANGSTAEQL, the IC50 came to 67.6 µM with HLA-A*02:01 (setting [2]); 7.28 µM with HLA-A*02:02 (setting [2]); 45.3 µM with HLA-A*02:03 (setting [2]); 55.2 µM with HLA-A*02:06 (setting [2]); 13.3 µM with HLA-A*68:02 (setting [2]).

As to ATALANTI, the 50% inhibitory concentration (IC50) is 21.9 µM in the test with HLA-A*02:01 (setting [4]); 42.9 µM with HLA-A*02:02 (setting [4]); 22.4 µM in the test with HLA-A*02:03 (setting [4]); no less than 70 µM with HLA-A*02:06 (setting [4]); 40.8 µM with HLA-A*68:02 (setting [4]).
